From publication PMC10784468 (Nature Communications, 2024)

Assay: •OH by TPA fluorescence assay, turnover frequency
Conditions: TPA fluorescence 425 nm, H2O2 concentration-dependent
Method: The generation of •OH was determined by the Magnettech MS-5000 EPR spectrometer. Typically, peptide-porphyrin conjugates (40 μM) were exposed to H2O2 (200 μM) for 3 min in the presence of 5,5-dimethyl-1-pyrroline-N-oxide (DMPO, 100 μM). The •OH signal was immediately detected by the EPR spectrometer. The amount of •OH was measured by using TPA as an indicator that following the increasement of HTPA fluorescence in the conjugate solution. Briefly, TPA (50 μL, 2 mM) and fresh conjugate solution (50 mM) were mixed with 1 ml H2O, and then the solution was exposed to various concentration of H2O2. The fluorescence at 425 nm (λex = 310 nm) was recorded at 5 min to determine the concentration of •OH, which can further be applied for calculating the TOF of peptide-porphyrin conjugates.
Supplementary Fig. 21. Terephthalic acid (TPA) reacts with hydroxyl radical in solution to produce stable and strong fluorescent substances (Ortho -hydroxyterephthalic acid, HTPA). The reaction is used to quantitatively analyze •OH produced by Gi -F under the H2O2 treatment (a). Plot showing the linear relationship of relative fluorescence intensity with H 2O2 concentration (b). The fluorescence of different concentration of HTPA at 425 […]
(1 picture or pasted object on this page, not shown here)

FeTCPP-LKLKLKGACNWLPLYPCPV (disulfide) [Gi-F]
turnover frequency (TOF): 0.022 s⁻¹
